Results reported in US20250084143A1 (INSERM INSTITUT NATIONAL DE LA SANT ET DE LA RECHERCHE M …, published 2025).

Target: T1, biotin-tagged HLA-A*03:01 monomers (immunAware) (human, biotin tag)
T1 construct: Bought recombinant monomer folded with the test peptide; also called HLA-A3; A3
Assay: flow cytometry on streptavidin beads: folding of biotinylated HLA-A*03:01 monomer around the peptide, detected with anti-b2m; 1.2 nM complex
Description: Experimental binding to HLA-A3 was measured by flow cytometry using biotin-tagged HLA-A*03:01 monomers (immunAware). […] The bead-associated fluorescence is only detected if the test peptide supports the folding of the HLA-A3 complex. […] The HLA-A3-binding peptide Flu NP₂₆₅₋₂₇₃ ([sequence]), and a non-binding peptide CHGA₃₈₂₋₃₉₀ ([sequence]) were included as positive and negative controls, respectively.
A first selection was performed based on a novel HLA Class I binding assay that we set up. Briefly, the same biotinylated recombinant HLA-A3 monomeric molecules that are used for MMr production are folded with the test peptides and captured on streptavidin-coated beads.

RLKPSLVGK (From the SCG5-009 mRNA splice variant) [SCG5-009 193-201 peptide]: binds.
